# Results reported in US20230192842A1 (published 2023).
# Legend:
# [1] = target: human CLDN3 V150A mutant on RKO KO cells (human) (UniProt O15551); test: flow cytometry, % 906-mAb-PE positive of live cells
# [2] = target: human CLDN3 I45A mutant on RKO KO cells (human) (UniProt O15551); test: as above
# [3] = target: human CLDN3 Q43A mutant on RKO KO cells (human) (UniProt O15551); test: as above
# [4] = target: human CLDN3 P149A mutant on RKO KO cells (human) (UniProt O15551); test: as above
# [5] = target: human CLDN3 N148A mutant on RKO KO cells (human) (UniProt O15551); test: as above
# Sequence of human CLDN3 N148A mutant on RKO KO cells (human) (O15551 whole entry N148A): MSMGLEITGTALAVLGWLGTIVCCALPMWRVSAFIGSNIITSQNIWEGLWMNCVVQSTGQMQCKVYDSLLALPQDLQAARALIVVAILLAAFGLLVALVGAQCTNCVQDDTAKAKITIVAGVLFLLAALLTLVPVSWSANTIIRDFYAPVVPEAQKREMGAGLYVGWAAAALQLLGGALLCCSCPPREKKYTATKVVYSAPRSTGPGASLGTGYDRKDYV
# [6] = target: human CLDN3 K156A mutant on RKO KO cells (human) (UniProt O15551); test: as above
# Sequence of human CLDN3 K156A mutant on RKO KO cells (human) (O15551 whole entry K156A): as the sequence (O15551 whole entry N148A) above, with A148N, K156A counted along it
# [7] = target: human CLDN3 F34A mutant on RKO KO cells (human) (UniProt O15551); test: as above
# Sequence of human CLDN3 F34A mutant on RKO KO cells (human) (O15551 whole entry F34A): as the sequence (O15551 whole entry N148A) above, with F34A, A148N counted along it
# [8] = target: human CLDN3 P152A mutant on RKO KO cells (human) (UniProt O15551); test: as above
# Sequence of human CLDN3 P152A mutant on RKO KO cells (human) (O15551 whole entry P152A): as the sequence (O15551 whole entry N148A) above, with A148N, P152A counted along it
# [9] = target: human CLDN3 I39A mutant on RKO KO cells (human) (UniProt O15551); test: as above
# Sequence of human CLDN3 I39A mutant on RKO KO cells (human) (O15551 whole entry I39A): as the sequence (O15551 whole entry N148A) above, with I39A, A148N counted along it
# [10] = target: human CLDN3 Q155A mutant on RKO KO cells (human) (UniProt O15551); test: as above
# Sequence of human CLDN3 Q155A mutant on RKO KO cells (human) (O15551 whole entry Q155A): as the sequence (O15551 whole entry N148A) above, with A148N, Q155A counted along it
# [11] = target: human CLDN3 R157A mutant on RKO KO cells (human) (UniProt O15551); test: as above
# Sequence of human CLDN3 R157A mutant on RKO KO cells (human) (O15551 whole entry R157A): as the sequence (O15551 whole entry N148A) above, with A148N, R157A counted along it
# [12] = target: human CLDN3 S42A mutant on RKO KO cells (human) (UniProt O15551); test: as above
# Sequence of human CLDN3 S42A mutant on RKO KO cells (human) (O15551 whole entry S42A): as the sequence (O15551 whole entry N148A) above, with S42A, A148N counted along it
# [13] = target: human CLDN3 V150A mutant on RKO KO cells (human) (UniProt O15551); test: flow cytometry, 906-mAb-PE on RKO KO cells expressing the mutant
# [14] = target: human CLDN3 I45A mutant on RKO KO cells (human) (UniProt O15551); test: as above
# [15] = target: human CLDN3 Q43A mutant on RKO KO cells (human) (UniProt O15551); test: as above
# [16] = target: human CLDN3 P149A mutant on RKO KO cells (human) (UniProt O15551); test: as above
# [17] = target: human CLDN3 N148A mutant on RKO KO cells (human) (UniProt O15551); test: as above
# [18] = target: human CLDN3 K156A mutant on RKO KO cells (human) (UniProt O15551); test: as above
# [19] = target: human CLDN3 F34A mutant on RKO KO cells (human) (UniProt O15551); test: as above
# [20] = target: human CLDN3 P152A mutant on RKO KO cells (human) (UniProt O15551); test: as above
# [21] = target: human CLDN3 I39A mutant on RKO KO cells (human) (UniProt O15551); test: as above
# [22] = target: human CLDN3 Q155A mutant on RKO KO cells (human) (UniProt O15551); test: as above
# [23] = target: human CLDN3 R157A mutant on RKO KO cells (human) (UniProt O15551); test: as above
# [24] = target: human CLDN3 S42A mutant on RKO KO cells (human) (UniProt O15551); test: as above
# Sequence of human CLDN3 P149A mutant on RKO KO cells (human) (O15551 whole entry P149A): as the sequence (O15551 whole entry N148A) above, with A148N, P149A counted along it
# Sequence of human CLDN3 I45A mutant on RKO KO cells (human) (O15551 whole entry I45A): as the sequence (O15551 whole entry N148A) above, with I45A, A148N counted along it
# Sequence of human CLDN3 V150A mutant on RKO KO cells (human) (O15551 whole entry V150A): as the sequence (O15551 whole entry N148A) above, with A148N, V150A counted along it
# Sequence of human CLDN3 Q43A mutant on RKO KO cells (human) (O15551 whole entry Q43A): as the sequence (O15551 whole entry N148A) above, with Q43A, A148N counted along it
binder,measurement,setting,value
"906-mAb (anti-CLDN3 906-mAb, monoclonal antibody version of the scFv of 906-009_LNGFR) (antibody, V domains shown) VH: QVQLVQSGAEVKKPGSSVKVSCKASGYTFTNYWVHWVRQAPGQGLEWMGRIEPNSSGSQYNEKFKNRVTITADKSTSTAYMELSSLRSEDTAVYYCARGVMVPLDYWGQGTLVTVSS VL: DIQMTQSPSSLSASVGDRVTITCKASQDINRYIAWYQQKPGKAPKLLIHYTSTLQPGVPSRFSGSGSGTDFTLTISSLQPEDFATYYCLQYETLYSFGQGTKLEIK",Change in % Parent (906-mAb-PE positive cells) vs CLDN3 WT,[1],0%
same,Change in % Parent (906-mAb-PE positive cells) vs CLDN3 WT,[2],0.05%
same,Change in % Parent (906-mAb-PE positive cells) vs CLDN3 WT,[3],0.1%
same,Change in % Parent (906-mAb-PE positive cells) vs CLDN3 WT,[4],0.1%
same,Change in % Parent (906-mAb-PE positive cells) vs CLDN3 WT,[5],0.1%
same,Change in % Parent (906-mAb-PE positive cells) vs CLDN3 WT,[6],0.05%
same,Change in % Parent (906-mAb-PE positive cells) vs CLDN3 WT,[7],-0.95%
same,Change in % Parent (906-mAb-PE positive cells) vs CLDN3 WT,[8],0.1%
same,Change in % Parent (906-mAb-PE positive cells) vs CLDN3 WT,[9],0.1%
same,Change in % Parent (906-mAb-PE positive cells) vs CLDN3 WT,[10],0.1%
same,Change in % Parent (906-mAb-PE positive cells) vs CLDN3 WT,[11],0.1%
same,Change in % Parent (906-mAb-PE positive cells) vs CLDN3 WT,[12],0.1%
same,fold change MFI vs CLDN3 WT (fold vs CLDN3 WT),[13],2.98
same,fold change MFI vs CLDN3 WT (fold vs CLDN3 WT),[14],3.17
same,fold change MFI vs CLDN3 WT (fold vs CLDN3 WT),[15],2.68
same,fold change MFI vs CLDN3 WT (fold vs CLDN3 WT),[16],2.03
same,fold change MFI vs CLDN3 WT (fold vs CLDN3 WT),[17],2.75
same,fold change MFI vs CLDN3 WT (fold vs CLDN3 WT),[18],0.73
same,fold change MFI vs CLDN3 WT (fold vs CLDN3 WT),[19],0.4
same,fold change MFI vs CLDN3 WT (fold vs CLDN3 WT),[20],5.07
same,fold change MFI vs CLDN3 WT (fold vs CLDN3 WT),[21],0.95
same,fold change MFI vs CLDN3 WT (fold vs CLDN3 WT),[22],3.4
same,fold change MFI vs CLDN3 WT (fold vs CLDN3 WT),[23],1.31
same,fold change MFI vs CLDN3 WT (fold vs CLDN3 WT),[24],3.91
